According to patent US20230131847A1, “RECOMBINASE COMPOSITIONS AND METHODS OF USE” (FLAGSHIP PIONEERING INNOVATIONS VI, LLC, priority 2019, published 2023):

Columns and labels:
[1] = system: HEK293T landing pad cells; assay: Dual AAV delivery of serine integrase and template DNA, ddPCR integration assay; type: cell-based, human
Excerpt: FIGS. 3A and 3B: Dual AAV delivery of serine integrase and template DNA to mammalian cells. (A) Schematic representation of experiment. BXB1 serine recombinase and template DNA are co-delivered as separate AAV viral vectors into BXB landing pad cell lines. (B) Droplet digital PCR (ddPCR) assay to assess integration (% CNV/landing pad) of BXB1 serine recombinase and transgene into attP-attP* landing pad cell line 3 days and 7 days post-transduction. Black dots (to the right of each pair of gray dots) indicate template only samples and fall at 0% on the y-axis. Gray dots (to the left of each pair of black dots) indicate template+BXB1 integrase and fall between 1-6% on the y-axis. […]
Two transgene configurations are assessed to determine the integration, stability, and expression using different AAV donor formats (FIG. 1B): 1) template comprising attP* or attB* that utilizes formation of double-stranded circularized DNA following AAV transduction in the cell nucleus; or 2) template comprising double attachment sites, attP-attP* or attB-attB*, that can integrate into the mammalian genome independent of double-stranded circularization of the DNA following AAV transduction in the cell nucleus. […]

[2] = system: HEK293T landing pad cells; assay: mRNA delivery of integrase and AAV delivery of template DNA, ddPCR integration assay; type: cell-based, human
Excerpt: FIGS. 4A and 4B: mRNA delivery of BXB1 integrase and AAV delivery of template DNA to mammalian cells. (A) Schematic representation of experiment. mRNA delivery of BXB1 serine recombinase and AAV delivery of template DNA into BXB1 landing pad cell lines. (B) Droplet digital PCR (ddPCR) assay to assess integration (% CNV/landing pad) of BXB1 serine recombinase and transgene into attP-attP* landing pad cell line 3 days post mRNA transfection/AAV transduction. Black dots (to the right of each pair of gray dots) indicate template only samples and fall at 0% on the y-axis. Gray dots (to the left of each pair of black dots) indicate template+BXB1 integrase and fall at greater than 0% on the y-axis.
More specifically, a recombinase, e.g., an integrase with an amino acid sequence from Table 3A, 3B, or 3C, e.g., the Bxb1 recombinase protein (Table 3A Line No. 204), and a template DNA comprising the associated attachment site, e.g., a sequence from a LeftRegion or RightRegion of Table 2A, 2B, or 2C, e.g., the LeftRegion from Table 2A Line No. 204, are introduced into a HEK293T landing pad cell line. In this example, the recombinase is delivered as mRNA encoding the recombinase, and the template DNA is delivered via AAV.
HEK293T landing pad cells containing either the attP-attP* or attB-attB* landing pad sites (see Example 14) were seeded in a 48-well plate format at 40,000 cells/well. […] The timing of delivery was also assessed by the following conditions: 1) mRNA delivery of BXB1 integrase and AAV delivery of template DNA on the same day, 2) mRNA delivery of BXB1 integrase 24 h prior to AAV delivery of template DNA, 3) AAV delivery of template DNA 24 h prior to mRNA delivery of BXB1 integrase. ddPCR was performed to assess the integration mediated through mRNA delivery of a serine integrase and AAV delivery of a template comprising its attachment, ddPCR was performed to assay for integration (% CNV/landing pad) on day 3 post-transfection of mRNA and post-transduction of AAV. ˜2-4% integration was detected using an attP* donor to attB-attB* landing pad 293T cell line (FIG. 4B). […]

B1: BXB1 integrase: Bxb1 recombinase protein (Table 3A Line No. 204), delivered as AAV vector or mRNA (protein, UniProt P25426 1-333, looked up)
Integrase: MDAEAWLASEKRLIDNEEWTPPAEREKKAAASAITVEEYTKKWIAERDLAGGTKDLYSTHARKRIYPVLGDTPVAEMTPALVRAWWAGMGKQYPTARRHAYNVLRAVMNTAVEDKLVSENPCRIEQKAPAERDVEALTPEELDVVAGEVFEHYRVAVYILAWTSLRFGELIEIRRKDIMDDGETMKLRVRRGPARVGEKIVVGNTKTVRSKRPVTVPPHVAAMIRAHMADRTKMNKGPEALLVTTTRGQRLSKSAFTRSLKKGYAKIGRPDLRIHDLRAVGATLAAQAGATTKELMVRLGHTTPRMAMKYQMASAARDEEIARRMSELAGITP
- integration (% CNV/landing pad) by ddPCR ([1]; dual AAV2, attB* donor to attP-attP* landing pad cell line, day 3 and day 7 post-transduction, integrase MOI about 25,000, template MOI about 75,000): ~5%
- integration (% CNV/landing pad) by ddPCR, FIG. 3B ([1]; dual AAV, template+BXB1 integrase, attP-attP* landing pad cell line, 3 days and 7 days post-transduction): 1-6%
- highest % CNV/landing pad by ddPCR ([2]; AAV delivery of attachment site donor 24 h prior to mRNA delivery of BXB1 integrase, day 3): ~4%
- integration (% CNV/landing pad) by ddPCR ([2]; integrase mRNA about 1 μg + AAV template MOI about 75,000, attP* donor to attB-attB* landing pad 293T cell line, day 3): 2-4%
- integration (% CNV/landing pad) by ddPCR, FIG. 4B ([2]; template+BXB1 integrase, attP-attP* landing pad cell line, 3 days post mRNA transfection/AAV transduction): greater than 0%
